Test results taken from PMC6641210 (2019).
Where “and” joins values, the source holds several entries; their conditions need not be identical. Identical values can stand only once. Like-named read-outs stand apart in the source and are kept apart here. Values belong to the molecule of their own block, whether it stands above or below them.

Key:
[1] = molecular target: chimeric rabbit IgG: variable regions of human 25G1 on rabbit IgG heavy and rabbit kappa (K2) light chain constant regions (human | rabbit (Oryctolagus cuniculus)); assay: SPR; Biacore X100, 25°C, HBS-EP+; antibody captured on a Protein L Sensor Chip, five-point titration of FcγRIIIA ECD in triplicate; steady-state affinity model
[2] = molecular target: ADCC-enhanced human IgG1 25G1 with S239D/I332E (human); assay: SPR; Biacore X100, 25°C, HBS-EP+ (0.01 M HEPES pH 7.4, 0.15 M NaCl, 3 mM EDTA, 0.05% P20); antibody (5.3 nM) captured by its kappa light chain on a Protein L Sensor Chip, FcγRIIIA ECD injected 30 s at 30 µl/min; five-point titration in triplicate; kinetic fit, 1:1 Langmuir binding model
[3] = molecular target: chimeric rabbit IgG: variable regions of human 25G1 on rabbit IgG heavy and rabbit kappa (K2) light chain constant regions (human | rabbit (Oryctolagus cuniculus)); assay: as above
[4] = molecular target: rabbit chimera of human IgG1 25G1 (human 25G1 variable regions on rabbit IgG heavy chain and rabbit kappa K2 light chain constant regions) (rabbit (Oryctolagus cuniculus)); assay: SPR; antibody (5.3 nM) captured by its kappa light chain on a Protein L sensor chip, FcγRIIIA ECD injected as analyte; Biacore X100, 25°C, HBS-EP+ (0.01 M HEPES pH 7.4, 0.15 M NaCl, 3 mM EDTA, 0.05% P20); five-point titration in triplicate, 1:1 Langmuir binding model (kinetic)
[5] = molecular target: ADCC-enhanced human IgG1 25G1 with S239D/I332E (human); assay: SPR; Biacore X100, 25°C, HBS-EP+; antibody captured on a Protein L Sensor Chip, five-point titration of FcγRIIIA ECD in triplicate; steady-state affinity model
[6] = molecular target: ADCC-enhanced human IgG1 25G1 with S239D/I332E (human); assay: SPR
[7] = molecular target: ADCC-enhanced human IgG1 25G1 with S239D/I332E (human); assay: SPR; remark: listed apart in the source
[8] = molecular target: chimeric pig IgG1: variable regions of human 25G1 on pig IgG1 heavy and pig kappa light chain constant regions (human | pig (Sus scrofa)); assay: SPR; Biacore X100, 25°C, HBS-EP+; antibody captured on a Protein L Sensor Chip, five-point titration of FcγRIIIA ECD in triplicate; steady-state affinity model
[9] = molecular target: human IgG1 anti-Tissue Factor antibody 25G1 with a kappa light chain (human); assay: as above
[10] = molecular target: ADCC-enhanced human IgG1 (25G1) with the S239D/I332E mutations (human); assay: SPR; antibody (5.3 nM) captured by its kappa light chain on a Protein L sensor chip, FcγRIIIA ECD injected as analyte; Biacore X100, 25°C, HBS-EP+ (0.01 M HEPES pH 7.4, 0.15 M NaCl, 3 mM EDTA, 0.05% P20); five-point titration in triplicate, 1:1 Langmuir binding model (kinetic)
[11] = molecular target: human IgG1 antibody with a kappa light chain (human anti-Tissue Factor antibody 25G1) (human); assay: as above
[12] = molecular target: pig chimera of human IgG1 25G1 (human 25G1 variable regions on pig IgG1 heavy chain and pig kappa light chain constant regions) (pig (Sus scrofa)); assay: as above
[13] = molecular target: chimeric pig IgG1: variable regions of human 25G1 on pig IgG1 heavy and pig kappa light chain constant regions (human | pig (Sus scrofa)); assay: SPR; Biacore X100, 25°C, HBS-EP+ (0.01 M HEPES pH 7.4, 0.15 M NaCl, 3 mM EDTA, 0.05% P20); antibody (5.3 nM) captured by its kappa light chain on a Protein L Sensor Chip, FcγRIIIA ECD injected 30 s at 30 µl/min; five-point titration in triplicate; kinetic fit, 1:1 Langmuir binding model
[14] = molecular target: human IgG1 anti-Tissue Factor antibody 25G1 with a kappa light chain (human); assay: as above
[15] = molecular target: T1, rabbit FcγRIIIA extracellular domain fragment (rabbit (Oryctolagus cuniculus)); assay: SPR
T1 chain: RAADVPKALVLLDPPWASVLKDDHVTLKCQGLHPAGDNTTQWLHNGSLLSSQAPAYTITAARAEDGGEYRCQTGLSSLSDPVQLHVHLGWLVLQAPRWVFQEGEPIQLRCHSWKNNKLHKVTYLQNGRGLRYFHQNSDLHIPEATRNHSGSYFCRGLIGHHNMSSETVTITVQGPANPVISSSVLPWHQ

[16] = molecular target: T2, pig FcγRIIIA extracellular domain fragment (pig, UniProt Q28942 20-209); assay: SPR
T2 chain: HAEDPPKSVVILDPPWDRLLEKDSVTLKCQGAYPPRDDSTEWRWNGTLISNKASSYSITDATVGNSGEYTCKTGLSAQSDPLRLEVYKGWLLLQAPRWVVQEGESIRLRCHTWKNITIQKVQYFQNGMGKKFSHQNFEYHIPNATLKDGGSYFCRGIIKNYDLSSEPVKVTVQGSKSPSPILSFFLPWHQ

[17] = molecular target: T3, chimeric rabbit IgG: variable regions of human 25G1 on rabbit IgG heavy and rabbit kappa (K2) light chain constant regions (human | rabbit (Oryctolagus cuniculus)); assay: SPR; Biacore X100, 25°C, HBS-EP+; antibody captured on a Protein L Sensor Chip, five-point titration of FcγRIIIA ECD in triplicate; steady-state affinity model; remark: listed apart in the source
[18] = molecular target: T4, human IgG1 anti-Tissue Factor antibody 25G1 with a kappa light chain (human); assay: as above; remark: listed apart in the source
[19] = molecular target: biotinylated rabbit IgG (Jackson 011-060-003) (rabbit); assay: SPR; biotinylated rabbit IgG immobilised on a streptavidin Sensor Chip SA, titration of rabbit FcγRIIIA as analyte; steady-state affinity analysis, average of a triplicate
[20] = molecular target: ADCC-enhanced human IgG1 (25G1) with the S239D/I332E mutations (human); assay: SPR; antibody (5.3 nM) captured by its kappa light chain on a Protein L sensor chip, FcγRIIIA ECD injected as analyte; Biacore X100, 25°C, HBS-EP+ (0.01 M HEPES pH 7.4, 0.15 M NaCl, 3 mM EDTA, 0.05% P20); five-point titration in triplicate, 1:1 Langmuir binding model (kinetic); remark: listed apart in the source
[21] = molecular target: human IgG1 antibody with a kappa light chain (human anti-Tissue Factor antibody 25G1) (human); assay: as above; remark: listed apart in the source
[22] = molecular target: rabbit chimera of human IgG1 25G1 (human 25G1 variable regions on rabbit IgG heavy chain and rabbit kappa K2 light chain constant regions) (rabbit (Oryctolagus cuniculus)); assay: as above; remark: listed apart in the source
[23] = molecular target: T3, chimeric rabbit IgG: variable regions …; assay: SPR; Biacore X100, 25°C, HBS-EP+ (0.01 M HEPES pH 7.4, 0.15 M NaCl, 3 mM EDTA, 0.05% P20); antibody (5.3 nM) captured by its kappa light chain on a Protein L Sensor Chip, FcγRIIIA ECD injected 30 s at 30 µl/min; five-point titration in triplicate; kinetic fit, 1:1 Langmuir binding model; remark: listed apart in the source
[24] = molecular target: T4, human IgG1 anti-Tissue Factor antibody …; assay: as above; remark: listed apart in the source

- Kd [1]: 0.792 µM
- Kd [2]: 4.6 nM
- koff [2]: 0.05 s⁻¹
- kon [2]: 1.16e+07 M⁻¹ s⁻¹
- Kd [3]: 0.773 µM
- koff [3]: 0.14 s⁻¹
- kon [3]: 186000 M⁻¹ s⁻¹
Molecule: human FcγRIIIA-F158 (low affinity allele) extracellular domain fragment (receptor)

- difference of kinetic KD between hIgG1 and rIgG [4]: 24%
Molecule: human FcγRIIIA extracellular domain fragment, low affinity F158 variant (from UniProt P08637 17-208) (receptor)

- Kd [5]: 133 nM
- Kd [2]: 148 nM
- koff [2]: 0.27 s⁻¹
- kon [2]: 1.8e+06 M⁻¹ s⁻¹
Molecule: rabbit FcγRIIIA extracellular domain fragment (receptor)

- Kd [6]: 1.18 nM
- koff [6]: 0.01 s⁻¹
- kon [6]: 1.01e+07 M⁻¹ s⁻¹
Molecule: human FcγRIIIA-V158 (high affinity allele) extracellular domain fragment (receptor)

- Kd [7]: 638 nM
- Kd [8]: 3.97 µM
- Kd [1]: 13.2 µM
- Kd [9]: 14.7 µM
- fold deterioration of kd relative to hIgG1 [10]: 7 fold
- fold improvement of KD relative to hIgG1 [10]: > 10 fold
- fold reduction of affinity relative to hFcγRIIIA [11]: 13 fold
- Kd [12]: 4.73 µM
- difference of kinetic KD between hIgG1 and rIgG [4]: 30%
- Kd [2]: 726 nM
- koff [2]: 0.35 s⁻¹
- kon [2]: 480000 M⁻¹ s⁻¹
- koff [13]: 0.28 s⁻¹
- kon [13]: 59700 M⁻¹ s⁻¹
- Kd [3]: 10.9 µM
- koff [3]: 0.08 s⁻¹
- kon [3]: 7110 M⁻¹ s⁻¹
- Kd [14]: 8.06 µM
- koff [14]: 0.05 s⁻¹
- kon [14]: 5920 M⁻¹ s⁻¹
B1: pig FcγRIIIA extracellular domain fragment (receptor)
chain: HAEDPPKSVVILDPPWDRLLEKDSVTLKCQGAYPPRDDSTEWRWNGTLISNKASSYSITDATVGNSGEYTCKTGLSAQSDPLRLEVYKGWLLLQAPRWVVQEGESIRLRCHTWKNITIQKVQYFQNGMGKKFSHQNFEYHIPNATLKDGGSYFCRGIIKNYDLSSEPVKVTVQGSKSPSPILSFFLPWHQ

- Kd [15]: 2170 nM and 2710 nM
- Kd [16]: 8.06 µM and 14.7 µM
B2: human IgG1 antibody with a kappa light chain (human anti-Tissue Factor antibody 25G1) (antibody)
chain 1: QVQLVQSGAEVKKPGASVKVSCKASGYTFRSYGISWVRQAPGQGLEWMGWVAPYSGNTNYAQKLQGRVTMTTDTSTSTAYMELRSLRSDDTAVYYCARDAGTYSPYGYGMDVWGQGTTVTVSS
chain 2: DIQMTQSPSTLSASVGDRVTITCRASHSIDSWLAWYQQKPGKAPKLLIYKASYLESGVPSRFSGSGSGTEFTLTISSLQPDDFATYYCQLFQSLPPFTFGGGTKVEIK

- Kd [17]: 1990 nM
- Kd [18]: 2170 nM
- Kd [19]: 1320 nM
- fold improvement of KD relative to hIgG1 [20]: > 10 fold
- fold reduction of affinity relative to hFcγRIIIA [21]: 4 fold
- Kd [22]: 2450 nM
- difference of kinetic KD between hIgG1 and rIgG [22]: 10%
- koff [23]: 0.34 s⁻¹
- kon [23]: 140000 M⁻¹ s⁻¹
- Kd [24]: 2710 nM
- koff [24]: 0.33 s⁻¹
- kon [24]: 122000 M⁻¹ s⁻¹
B3: rabbit FcγRIIIA extracellular domain fragment (receptor)
chain: RAADVPKALVLLDPPWASVLKDDHVTLKCQGLHPAGDNTTQWLHNGSLLSSQAPAYTITAARAEDGGEYRCQTGLSSLSDPVQLHVHLGWLVLQAPRWVFQEGEPIQLRCHSWKNNKLHKVTYLQNGRGLRYFHQNSDLHIPEATRNHSGSYFCRGLIGHHNMSSETVTITVQGPANPVISSSVLPWHQ
modifications: not checked
